Assay results as given in patent US20090143308A1.

Columns and labels:
Experiment in all cases: cell-based or functional assay
[1] = target: Candida albicans Cdr1p as expressed in S. cerevisiae AD1002 (CDR1 of plasmid pKEN1002) (Candida albicans) (UniProt P43071)
[2] = target: S. cerevisiae plasma membrane H+-ATPase (Pma1p) (Saccharomyces cerevisiae) (UniProt P05030)
[3] = target: Saccharomyces cerevisiae Pdr5p (over-expressed in strain AD124567) (Saccharomyces cerevisiae) (UniProt P33302)
Saccharomyces cerevisiae Pdr5p (over-expressed in strain AD124567) (Saccharomyces cerevisiae), sequence (P33302 whole entry): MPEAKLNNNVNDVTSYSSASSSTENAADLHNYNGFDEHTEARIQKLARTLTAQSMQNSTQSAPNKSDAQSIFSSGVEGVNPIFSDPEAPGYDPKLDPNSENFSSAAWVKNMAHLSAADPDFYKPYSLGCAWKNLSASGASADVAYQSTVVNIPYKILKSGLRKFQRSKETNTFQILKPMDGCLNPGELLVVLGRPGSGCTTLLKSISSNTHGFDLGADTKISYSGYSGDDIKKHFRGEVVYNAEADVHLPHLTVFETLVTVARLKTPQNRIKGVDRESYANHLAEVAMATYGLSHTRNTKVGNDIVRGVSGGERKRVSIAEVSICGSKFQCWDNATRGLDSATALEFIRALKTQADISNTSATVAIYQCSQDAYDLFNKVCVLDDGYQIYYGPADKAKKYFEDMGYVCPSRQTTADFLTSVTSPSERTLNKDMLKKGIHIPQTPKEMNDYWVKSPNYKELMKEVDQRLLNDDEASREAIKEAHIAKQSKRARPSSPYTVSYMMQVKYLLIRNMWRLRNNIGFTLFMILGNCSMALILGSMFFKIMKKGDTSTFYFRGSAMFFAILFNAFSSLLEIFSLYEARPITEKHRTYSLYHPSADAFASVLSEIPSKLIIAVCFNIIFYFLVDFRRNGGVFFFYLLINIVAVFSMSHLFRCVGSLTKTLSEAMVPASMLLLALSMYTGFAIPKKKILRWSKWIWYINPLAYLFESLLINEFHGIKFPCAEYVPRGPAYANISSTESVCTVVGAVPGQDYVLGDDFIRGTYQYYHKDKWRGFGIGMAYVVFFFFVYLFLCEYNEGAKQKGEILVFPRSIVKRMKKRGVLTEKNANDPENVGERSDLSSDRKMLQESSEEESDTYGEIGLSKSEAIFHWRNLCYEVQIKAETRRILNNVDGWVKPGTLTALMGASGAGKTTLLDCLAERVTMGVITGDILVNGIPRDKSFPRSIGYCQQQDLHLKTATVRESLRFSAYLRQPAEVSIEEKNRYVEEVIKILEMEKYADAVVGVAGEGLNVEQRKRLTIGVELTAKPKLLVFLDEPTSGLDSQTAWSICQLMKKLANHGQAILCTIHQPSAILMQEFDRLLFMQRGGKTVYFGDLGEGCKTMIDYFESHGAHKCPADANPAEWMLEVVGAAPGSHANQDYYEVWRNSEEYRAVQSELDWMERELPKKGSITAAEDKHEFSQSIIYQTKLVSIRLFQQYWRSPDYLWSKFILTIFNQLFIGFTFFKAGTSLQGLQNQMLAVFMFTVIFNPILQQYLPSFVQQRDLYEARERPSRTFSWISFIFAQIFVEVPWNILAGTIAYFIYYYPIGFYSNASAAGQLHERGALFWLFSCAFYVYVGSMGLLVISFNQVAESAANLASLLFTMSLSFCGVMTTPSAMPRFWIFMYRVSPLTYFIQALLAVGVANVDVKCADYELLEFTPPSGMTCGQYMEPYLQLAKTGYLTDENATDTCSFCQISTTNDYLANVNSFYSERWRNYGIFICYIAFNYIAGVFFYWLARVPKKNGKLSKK

Candida albicans Cdr1p as expressed in S. cerevisiae AD1002 (CDR1 of plasmid pKEN1002) (Candida albicans), sequence (P43071 whole entry): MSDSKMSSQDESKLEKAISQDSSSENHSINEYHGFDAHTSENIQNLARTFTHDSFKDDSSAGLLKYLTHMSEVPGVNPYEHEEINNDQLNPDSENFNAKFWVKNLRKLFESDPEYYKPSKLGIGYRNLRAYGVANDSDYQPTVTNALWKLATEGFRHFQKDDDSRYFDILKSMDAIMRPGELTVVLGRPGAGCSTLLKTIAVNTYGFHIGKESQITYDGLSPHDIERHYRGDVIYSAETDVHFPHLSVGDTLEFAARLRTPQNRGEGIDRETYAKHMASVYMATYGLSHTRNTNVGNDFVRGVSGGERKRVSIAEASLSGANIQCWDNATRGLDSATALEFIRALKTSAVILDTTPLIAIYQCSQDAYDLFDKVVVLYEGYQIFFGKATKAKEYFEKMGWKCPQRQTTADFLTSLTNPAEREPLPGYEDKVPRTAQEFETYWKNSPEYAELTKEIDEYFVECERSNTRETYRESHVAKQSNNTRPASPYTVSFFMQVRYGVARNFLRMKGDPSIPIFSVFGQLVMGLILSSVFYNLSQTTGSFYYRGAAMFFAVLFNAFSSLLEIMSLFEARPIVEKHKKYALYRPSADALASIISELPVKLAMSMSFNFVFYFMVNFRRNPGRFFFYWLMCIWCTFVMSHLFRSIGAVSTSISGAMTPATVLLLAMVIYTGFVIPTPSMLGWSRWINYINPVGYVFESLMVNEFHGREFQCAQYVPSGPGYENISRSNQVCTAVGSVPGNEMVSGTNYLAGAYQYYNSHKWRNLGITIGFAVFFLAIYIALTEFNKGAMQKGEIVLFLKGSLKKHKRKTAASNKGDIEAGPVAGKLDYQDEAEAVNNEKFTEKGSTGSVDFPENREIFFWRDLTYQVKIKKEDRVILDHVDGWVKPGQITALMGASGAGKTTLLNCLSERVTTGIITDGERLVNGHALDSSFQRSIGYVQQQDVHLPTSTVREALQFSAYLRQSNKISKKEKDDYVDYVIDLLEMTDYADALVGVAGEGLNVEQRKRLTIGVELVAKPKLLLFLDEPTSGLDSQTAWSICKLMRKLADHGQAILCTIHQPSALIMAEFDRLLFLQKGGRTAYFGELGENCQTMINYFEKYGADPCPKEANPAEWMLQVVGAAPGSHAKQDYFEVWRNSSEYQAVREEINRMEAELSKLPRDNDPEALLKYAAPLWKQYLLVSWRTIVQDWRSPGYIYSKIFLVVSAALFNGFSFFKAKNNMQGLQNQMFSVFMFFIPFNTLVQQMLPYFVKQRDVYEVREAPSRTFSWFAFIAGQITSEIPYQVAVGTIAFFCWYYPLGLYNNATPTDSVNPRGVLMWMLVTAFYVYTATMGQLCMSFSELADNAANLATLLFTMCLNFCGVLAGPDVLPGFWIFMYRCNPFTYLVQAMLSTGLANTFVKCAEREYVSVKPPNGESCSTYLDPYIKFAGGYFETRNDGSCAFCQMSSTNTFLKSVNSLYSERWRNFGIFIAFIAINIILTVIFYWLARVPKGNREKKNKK
S. cerevisiae plasma membrane H+-ATPase (Pma1p) (Saccharomyces cerevisiae), sequence (P05030 whole entry): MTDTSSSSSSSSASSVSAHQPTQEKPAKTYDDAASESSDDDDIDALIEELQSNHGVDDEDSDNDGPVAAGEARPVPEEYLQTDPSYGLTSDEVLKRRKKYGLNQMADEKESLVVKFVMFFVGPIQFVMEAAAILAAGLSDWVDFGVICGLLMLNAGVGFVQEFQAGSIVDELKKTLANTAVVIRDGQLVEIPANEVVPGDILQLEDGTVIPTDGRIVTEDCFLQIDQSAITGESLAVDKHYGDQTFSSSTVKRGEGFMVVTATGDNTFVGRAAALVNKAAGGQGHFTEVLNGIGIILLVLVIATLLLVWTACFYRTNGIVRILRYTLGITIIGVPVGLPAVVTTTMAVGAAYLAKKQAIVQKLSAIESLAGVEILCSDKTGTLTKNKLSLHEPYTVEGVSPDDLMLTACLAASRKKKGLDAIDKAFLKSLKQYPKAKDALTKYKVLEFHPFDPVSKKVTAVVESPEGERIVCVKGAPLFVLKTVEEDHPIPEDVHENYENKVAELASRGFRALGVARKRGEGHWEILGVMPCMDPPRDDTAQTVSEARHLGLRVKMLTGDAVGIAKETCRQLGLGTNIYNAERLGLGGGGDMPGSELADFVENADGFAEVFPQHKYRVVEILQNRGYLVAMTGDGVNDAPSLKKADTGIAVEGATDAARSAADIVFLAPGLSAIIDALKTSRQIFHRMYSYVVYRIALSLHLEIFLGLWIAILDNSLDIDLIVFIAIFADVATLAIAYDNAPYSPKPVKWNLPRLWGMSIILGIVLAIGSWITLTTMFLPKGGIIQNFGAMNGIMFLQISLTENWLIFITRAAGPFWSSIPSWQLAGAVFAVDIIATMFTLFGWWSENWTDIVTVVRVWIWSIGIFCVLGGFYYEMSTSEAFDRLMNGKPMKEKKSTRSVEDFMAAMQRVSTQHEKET

KN20 (D-NH2-asparagine-tryptophan-tryptophan-lysine-valine-arginine-arginine-arginine-CONH2 with a single Mtr substituent) (peptide)
fold higher inhibitory concentration for Cdr1p ATPase than for Pdr5p ATPase [1]: 2.7 fold | inhibition of oligomycin sensitive ATPase activity of AD1002 plasma membranes (I50) [1]: 8 µM | inhibition of S. cerevisiae plasma membrane H+-ATPase (I50) [2]: 10 µM | inhibition of oligomycin sensitive ATPase activity of plasma membranes from the AD124567 yeast strain overexpressing Pdr5p (I50) [3]: 3 µM
